{
  "source": "paper PMC8824505",
  "about": "“Complexes of Ghrelin GHS-R1a, GHS-R1b, and Dopamine D1 Receptors Localized in the Ventral Tegmental Area as Main Mediators of the Dopaminergic Effects of Ghrelin” (The Journal of Neuroscience, 2022)",
  "binders": {"B1": {"name": "GHS-R1a fused to GFP2 (GHS-R1a-GFP2) (receptor, human, UniProt Q92847-1 1-366, looked up)", "chain": "MWNATPSEEPGFNLTLADLDWDASPGNDSLGDELLQLFPAPLLAGVTATCVALFVVGIAGNLLTMLVVSRFRELRTTTNLYLSSMAFSDLLIFLCMPLDLVRLWQYRPWNFGDLLCKLFQFVSESCTYATVLTITALSVERYFAICFPLRAKVVVTKGRVKLVIFVIWAVAFCSAGPIFVLVGVEHENGTDPWDTNECRPTEFAVRSGLLTVMVWVSSIFFFLPVFCLTVLYSLIGRKLWRRRRGDAVVGASLRDQNHKQTVKMLAVVVFAFILCWLPFHVGRYLFSKSFEPGSLEIAQISQYCNLVSFVLFYLSAAINPILYNIMSKKYRVAVFRLLGFEPFSQRKLSTLKDESSRAWTESSINT"}},
  "molecular_target": "dopamine D1 receptor (D1R) (UniProt P21728 1-446)",
  "sequence (P21728 whole entry)": "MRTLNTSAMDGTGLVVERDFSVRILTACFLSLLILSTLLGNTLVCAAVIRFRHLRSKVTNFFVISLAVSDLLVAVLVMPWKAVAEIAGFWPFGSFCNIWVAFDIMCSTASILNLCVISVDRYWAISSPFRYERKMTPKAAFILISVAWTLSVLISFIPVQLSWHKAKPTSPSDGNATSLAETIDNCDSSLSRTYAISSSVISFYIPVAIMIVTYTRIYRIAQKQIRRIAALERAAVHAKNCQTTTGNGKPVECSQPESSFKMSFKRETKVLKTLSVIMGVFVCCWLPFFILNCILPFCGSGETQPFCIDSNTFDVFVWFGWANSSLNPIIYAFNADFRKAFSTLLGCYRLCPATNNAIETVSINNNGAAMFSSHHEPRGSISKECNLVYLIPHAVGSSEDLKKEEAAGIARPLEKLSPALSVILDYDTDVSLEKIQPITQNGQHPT",
  "test": "cell-based or functional assay",
  "data": [
    {"binder": "B1", "values": [
      {"measurement": "ghrelin-induced cAMP accumulation in HEK293T cells with GHS-R1a, D1R and increasing GHS-R1b cDNA; increase versus control at GHS-R1b/GHS-R1a cDNA ratios of 0, 0.3, 1 and 2 (26%, 72%, 46% and 15%)", "result": 72, "unit": "% increase versus control"}
    ]}
  ]
}
